Laboratory results reported in PMC6273323 (2016).
Non-standard residues stand in square brackets, D forms with d. No end group written: not given here. Phe(4-F) = N[C@@H](Cc1ccc(F)cc1)C(=O)O

Target: T1, DF*NNN fluorinated iNOS peptide
T1 chain: D[Phe(4-F)]NNN
Test: SPR

Kd: 3000 nM
B1: SPSB2 (protein)
chain: MGQTALARGSSSTPTSQALYSDFSPPEGLEELLSAPPPDLVAQRHHGWNPKDCSENIDVKEGGLCFERRPVAQSTDGVRGKRGYSRGLHAWEISWPLEQRGTHAVVGVATALAPLQADHYAALLGSNSESWGWDIGRGKLYHQSKGLEAPQYPAGPQGEQLVVPERLLVVLDMEEGTLGYSIGGTYLGPAFRGLKGRTLYPSVSAVWGQCQVRIRYMGERRVEEPQSLLHLSRLCVRHALGDTRLGQISTLPLPPAMKRYLLYK
